The results in this text go back to article PMC4579600, “Structure of HCMV glycoprotein B in the postfusion conformation bound to a neutralizing human antibody” (Nature Communications, 2015).

Several values for one entry are separate records, joined by “and”; a condition that tells them apart may be missing. Identical values can stand only once.

Series [1] addresses 1G2 IgG (neutralizing human monoclonal antibody) (human). The experiment in a line: SPR. In general terms: In SPR one partner is held on a chip, and binding of the other changes the refractive index at the surface.
The target in series [2] is HCMV glycoprotein B ectodomain ΔNgB-glyco (HCMV (Merlin strain)) (UniProt F5HB53).
For series [3], the target named is 1G2 IgG heavy chain F104A (human). Kind of series: SPR.
For series [4], the target named is 1G2 IgG heavy chain N102A (human). Kind of series: SPR.
In series [5] the target is 1G2 IgG heavy chain R31S (human). The experiment in a line: SPR.
Series [6] deals with 1G2 IgG heavy chain S32A (human). Kind of series: SPR.
The target of series [7] is 1G2 IgG heavy chain Y103A (human). The experiment in a line: SPR.
In series [8] the target is 1G2 IgG heavy chain Y109A (human). Kind of series: SPR.
In series [9] the target is 1G2 IgG light chain R51A (human). The experiment in a line: SPR.
Series [10] deals with 1G2 IgG light chain Y50A (human). Kind of series: SPR.
Series [11] has as its target T1, full-length WT HCMV gB (HCMV (strain ), UniProt F5HB53). The experiment in a line: cell-based or functional assay.
The target in series [12] is T2, HCMV glycoprotein B ectodomain gB-698glyco (Human cytomegalovirus, Merlin, UniProt F5HB53, Ile156His | His157Arg | Trp240Asn | Tyr242Thr | Cys246Ser | Arg457Ser | …).
T2 construct: also called postfusion gB; soluble gB ectodomain; source: CHO lec- cells, stably expressed, secreted, purified (Ni-NTA, SEC)
The experiment in a line: co-IP; soluble gB ectodomain (gB-698glyco) in 1% NP40, incubated with 10 μg 1G2 for 16 h at 4 °C, Dynabeads Protein A, blot with ITC88. The settings on record: both partners purified.

Series [13] has as its target T3, HCMV virion gB (strain VR1814) (Human cytomegalovirus (HHV-5), strain …, UniProt Q69163, strain).
T3 construct: also called gB from virions; source: cushion-purified VR1814 virions, lysed in 1% NP40
Kind of series: co-IP; cushion-purified VR1814 virions (500 μg) lysed in 1% NP40, incubated with 10 μg 1G2 for 16 h at 4 °C, Dynabeads Protein A, blot with ITC88. The settings on record: one partner purified.

Series [14] has as its target T1, full-length WT HCMV gB. Kind of series: flow cytometry on cells; BHK cells electroporated with full-length gB RNA, surface stained with 1 μg antibody per sample, goat anti-human IgG Alexa Fluor 647; gated on viable, dsRNA+ cells. The settings on record: one partner purified. A general note: In flow cytometry, cells or beads pass a laser one at a time.

In series [1], “ΔNgB-glyco F290A (from UniProt F5HB53 25-698) (domain or fragment)” registered a dissociation constant Kd of 3.79 nM, an off-rate constant (koff) of 0.000249 s⁻¹ and a kon of 66000 M⁻¹ s⁻¹.
“1G2 IgG (neutralizing human monoclonal antibody)” came in with a neutralisation EC50, HCMV TB40/E infection of ARPE-19 epithelial cells in [2] of 0.1 µg/mL.
Take “ΔNgB-glyco N293A/D295A (from UniProt F5HB53 25-698) (domain or fragment)”: in series [1], the equilibrium dissociation constant (Kd) is 0.35 nM, the off-rate constant (koff) came to 8.43e-05 s⁻¹ and the kon is 240000 M⁻¹ s⁻¹.
On the same counts, the results for “ΔNgB-glyco N284A (from UniProt F5HB53 25-698) (domain or fragment)” are 0.24 nM, 7.66e-05 s⁻¹ and 320000 M⁻¹ s⁻¹.
On the same counts, the results for “ΔNgB-glyco Y280A (from UniProt F5HB53 25-698) (domain or fragment)” are 29.3 nM, 0.000195 s⁻¹ and 7000 M⁻¹ s⁻¹.
For “ΔNgB-glyco F298A (from UniProt F5HB53 25-698) (domain or fragment)”, in that order: 0.26 nM, 5.59e-05 s⁻¹ and 214000 M⁻¹ s⁻¹.
Turning to “HCMV glycoprotein B ectodomain ΔNgB-glyco (from UniProt F5HB53 25-698) (domain or fragment)”, the dissociation constant Kd in series [1] was 0.13 nM and 0.17 nM; in [3] it was 1.53 nM; in series [4], 1.71 nM; in series [5], 0.22 nM; in [6] it was 0.03 nM; in series [7], 2.36 nM. Besides, the Kd in [8] amounted to 0.24 nM; in series [9] it was 0.16 nM; in series [10], 0.33 nM. Besides, the dissociation rate constant (koff) in series [1] is 3.75e-05 s⁻¹ and 6.36e-05 s⁻¹; in [3], 0.00045 s⁻¹; in series [4], 0.000526 s⁻¹; in [5], 6.07e-05 s⁻¹; in series [6], 1.06e-05 s⁻¹; in series [7] it was 0.000766 s⁻¹. Moreover, the values for the koff in series [8], in series [9] and in series [10] were 7.67e-05 s⁻¹, 5.11e-05 s⁻¹ and 0.000118 s⁻¹, respectively. For the same molecule, the on-rate (kon) is 295000 M⁻¹ s⁻¹ and 370000 M⁻¹ s⁻¹ in [1]; 294000 M⁻¹ s⁻¹ in [3]; 306000 M⁻¹ s⁻¹ in series [4]; 273000 M⁻¹ s⁻¹ in series [5]; 396000 M⁻¹ s⁻¹ in series [6]; 325000 M⁻¹ s⁻¹ in series [7]. Further, the kon came out at 324000 M⁻¹ s⁻¹ in series [8], 327000 M⁻¹ s⁻¹ in series [9] and 357000 M⁻¹ s⁻¹ in series [10].
Regarding “ΔNgB-glyco I299A (from UniProt F5HB53 25-698) (domain or fragment)”, in series [1], the Kd is 0.58 nM, the koff is 9e-05 s⁻¹ and the on-rate constant (kon) worked out at 155000 M⁻¹ s⁻¹.
Consider “ΔNgB-glyco N281A (from UniProt F5HB53 25-698) (domain or fragment)”, for which, in series [1], the Kd was 0.21 nM, the dissociation rate constant (koff) amounted to 4.57e-05 s⁻¹ and the kon came to 218000 M⁻¹ s⁻¹.
On the same counts, the results for “ΔNgB-glyco N286A (from UniProt F5HB53 25-698) (domain or fragment)” are 0.07 nM, 4.89e-05 s⁻¹ and 724000 M⁻¹ s⁻¹.
For “ΔNgB-glyco E292A (from UniProt F5HB53 25-698) (domain or fragment)”, in that order: 0.82 nM, 0.000108 s⁻¹ and 132000 M⁻¹ s⁻¹.
On the same counts, the results for “ΔNgB-glyco T283A (from UniProt F5HB53 25-698) (domain or fragment)” are 0.23 nM, 6.99e-05 s⁻¹ and 310000 M⁻¹ s⁻¹.
In the case of “ΔNgB-glyco YND-AAA (Y280A/N293A/D295A) (from UniProt F5HB53 25-698) (domain or fragment)”, in series [1], the Kd came out at 18.7 nM, the koff is 0.000392 s⁻¹ and the kon was found to be 21000 M⁻¹ s⁻¹.
For “ΔNgB-glyco F297A (from UniProt F5HB53 25-698) (domain or fragment)”, in that order: 13.7 nM, 0.000267 s⁻¹ and 19000 M⁻¹ s⁻¹.

B1: 1G2 IgG (neutralizing human monoclonal antibody) (antibody, V domains shown)
VH: QLQLQESGPGLVKPSETLSLTCTVSGASIDRSTYYWGWIRQPPGKGLEWIANIYYNGRAVYSPSLKSRVTISVDTSKNQFSLKVRSLTAADTAVYYCATRWNYFFDFDYWGRGTLVTVSS
VL: QSVLTQPPSASGTPGQRVTISCSGSSSNIETNYVSWYQQFPGTAPKLLIYRNNQRPSGVPDRFSGSKSGTSASLAISGLRSEDEAEYYCGTWDDNSWVFGGGTKLTVL
notes: IgG1; also called 1G2 mAb; WT 1G2
For B1, in the series with full-length WT HCMV gB [11], the “neutralisation EC50, gB on virus of HCMV strain 8816 (Ala287), ARPE-19 cells” value was 0.046 µg/mL; the “neutralisation EC50, gB on virus of HCMV strain 8819 (Ala287), ARPE-19 cells” value stood at 0.485 µg/mL; the “neutralisation EC50, gB on virus of HCMV strain 8819 (Ala287), NHDF cells” value stood at 0.85 µg/mL; the “neutralisation EC50, gB on virus of HCMV strain 8822 (Ala287), ARPE-19 cells” value stood at 0.319 µg/mL. Moreover, in the series with full-length WT HCMV gB [11], the “neutralisation EC50, gB on virus of HCMV strain 8822 (Ala287), NHDF cells” value is 0.485 µg/mL; the “neutralisation EC50, gB on virus of HCMV strain 8824 (Ala287), ARPE-19 cells” value amounted to 0.019 µg/mL; the “neutralisation EC50, gB on virus of HCMV strain 8824 (Ala287), NHDF cells” value was 0.043 µg/mL; the “neutralisation EC50, gB on virus of HCMV strain TM-28175 (Ala287), NHDF cells” value is 0.138 µg/mL. Moreover, in the series with full-length WT HCMV gB [11], the “neutralisation EC50, gB on virus of HCMV strain TR (Ala287), ARPE-19 cells” value turned out to be 0.248 µg/mL and the “neutralisation EC50, gB on virus of HCMV strain TR (Ala287), NHDF cells” value was found to be 0.303 µg/mL. The binding result in series [12] was “binds”. Further, the binding result in series [13] is given as “binds”. The binding result in the series with full-length WT HCMV gB [14] is reported as “binds”.

As a reminder, the Kd is a measure of binding affinity in units of concentration. Lower therefore signals tighter binding. The term koff denotes the rate constant with which the complex falls apart. High values mean fast dissociation, low ones slow dissociation. The term kon denotes the rate constant with which the complex forms. A high value points to faster complex formation.
